Assay results: PMC5213842, “Characterization and Crystal Structure of a Robust Cyclohexanone Monooxygenase” (Angewandte Chemie (International Ed. in English), 2016)

What was measured:
[1] = system: O=C1CCC1; experiment: purified protein
[2] = system: O=C1CCCCC1; experiment: purified protein
[3] = system: O=C1CC2C=CCC12; experiment: purified protein
[4] = biological target: T1, TmCHMO (Thermocrispum municipale, UniProt A0A1L1QK39); set-up: steady-state kinetics, NADPH consumption followed by absorbance at 340 nm; conditions: 150 uM NADPH, pH 7.0, 25 °C; substrate
T1 construct: purified recombinant enzyme (E. coli used as expression host for whole-cell work)
T1 sequence (A0A1L1QK39 1-541): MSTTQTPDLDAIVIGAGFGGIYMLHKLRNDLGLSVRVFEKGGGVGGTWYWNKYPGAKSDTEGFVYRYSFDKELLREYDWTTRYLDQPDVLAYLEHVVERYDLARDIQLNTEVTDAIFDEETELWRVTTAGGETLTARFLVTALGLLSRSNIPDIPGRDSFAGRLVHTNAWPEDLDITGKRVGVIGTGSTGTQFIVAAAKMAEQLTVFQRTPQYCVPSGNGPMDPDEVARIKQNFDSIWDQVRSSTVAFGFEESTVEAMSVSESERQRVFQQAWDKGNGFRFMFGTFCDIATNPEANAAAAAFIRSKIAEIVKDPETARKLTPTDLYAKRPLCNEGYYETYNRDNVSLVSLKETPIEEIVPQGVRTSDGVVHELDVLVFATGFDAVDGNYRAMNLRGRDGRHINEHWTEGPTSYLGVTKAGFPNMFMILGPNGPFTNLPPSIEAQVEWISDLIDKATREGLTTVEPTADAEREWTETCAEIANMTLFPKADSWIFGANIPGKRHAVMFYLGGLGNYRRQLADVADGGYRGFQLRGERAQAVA
Description: Steady-State Kinetics. Steady-state kinetic parameters for purified TmCHMO and AcCHMO were determined using a V-660 spectrophotometer (Jasco). Enzyme (0.02-4 μM), NADPH (150 μM), and increasing substrate concentrations were reacted in air-saturated 50 mM Tris-HCl at pH 7.0 and 25 °C. The rate of NADPH consumption was determined by following the decrease in absorbance at 340 nm (ɛ340 = 6.22 mM-1 cm-1 ). The initial rates of the reactions were plotted as a function of the substrate concentrations. […] Among the assayed compounds (Figure S3), only progesterone and cyclopentadecanone (50 μM) were not substrates of either enzyme based on the NADPH consumption assay. 19 4. EXPERIMENTAL SECTION Materials. NADPH was acquired from Jülich Chiral Solutions GmbH. All other materials were acquired from Sigma-Aldrich unless otherwise specified. Cloning of TmCHMO and BVMOs Purification. The amino acid sequence of a putative CHMO from the thermophilic actinomycete T. municipale DSM 44069 was retrieved from the NCBI database (http://www.ncbi.nlm.nih.gov). This organism is able to grow at 28-60 °C.[8] The TmCHMO sequence was found by carrying out a BLASTP (http://blast.ncbi.nlm.nih.gov/Blast.cgi) using the amino acid sequence of AcCHMO as a query sequence. A codon-optimized TmCHMO gene was synthetized and cloned into pUC57 plasmid by GenScript. […]

[5] = biological target: T2, TfPAMO (Thermobifida fusca, UniProt Q47PU3); experiment: small-scale conversion; format: biochemical; conditions: racemic substrate; enzyme preparation not given
T2 construct: gene pamO
T2 sequence (Q47PU3 whole entry): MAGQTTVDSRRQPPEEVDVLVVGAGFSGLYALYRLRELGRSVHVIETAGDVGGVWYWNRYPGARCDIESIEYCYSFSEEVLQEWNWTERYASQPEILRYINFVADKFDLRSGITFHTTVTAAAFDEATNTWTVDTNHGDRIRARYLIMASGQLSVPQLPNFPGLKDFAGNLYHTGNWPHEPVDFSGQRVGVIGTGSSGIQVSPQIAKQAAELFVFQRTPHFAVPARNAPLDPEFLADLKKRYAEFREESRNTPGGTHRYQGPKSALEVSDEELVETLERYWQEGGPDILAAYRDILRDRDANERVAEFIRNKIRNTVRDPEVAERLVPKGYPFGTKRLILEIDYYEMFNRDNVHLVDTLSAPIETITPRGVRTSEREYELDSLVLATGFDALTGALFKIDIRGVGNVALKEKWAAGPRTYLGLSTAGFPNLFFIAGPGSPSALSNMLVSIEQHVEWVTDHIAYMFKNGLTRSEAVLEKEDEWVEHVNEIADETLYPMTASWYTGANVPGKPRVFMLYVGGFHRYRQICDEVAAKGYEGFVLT

[6] = substrate: CC(=O)c1ccccc1; experiment: purified protein, by the assay type; set-up: steady-state kinetics, NADPH consumption followed by absorbance at 340 nm; conditions: pH 7.0; 25.0 °C
Description: (§1) Steady-State Kinetics. Steady-state kinetic parameters for purified TmCHMO and AcCHMO were determined using a V-660 spectrophotometer (Jasco). Enzyme (0.02-4 μM), NADPH (150 μM), and increasing substrate concentrations were reacted in air-saturated 50 mM Tris-HCl at pH 7.0 and 25 °C. The rate of NADPH consumption was determined by following the decrease in absorbance at 340 nm (ɛ340 = 6.22 mM-1 cm-1 ). The initial rates of the reactions were plotted as a function of the substrate concentrations. […] Among the assayed compounds (Figure S3), only progesterone and cyclopentadecanone (50 μM) were not substrates of either enzyme based on the NADPH consumption assay. 19 4. EXPERIMENTAL SECTION Materials. NADPH was acquired from Jülich Chiral Solutions GmbH. All other materials were acquired from Sigma-Aldrich unless otherwise specified. Cloning of TmCHMO and BVMOs Purification. The amino acid sequence of a putative CHMO from the thermophilic actinomycete T. municipale DSM 44069 was retrieved from the NCBI database (http://www.ncbi.nlm.nih.gov). This organism is able to grow at 28-60 °C.[8] The TmCHMO sequence was found by carrying out a BLASTP (http://blast.ncbi.nlm.nih.gov/Blast.cgi) using the amino acid sequence of AcCHMO as a query sequence. A codon-optimized TmCHMO gene was synthetized and cloned into pUC57 plasmid by GenScript. The TmCHMO gene was subcloned using standard methods into the pCRE2 plamid[9] with XhoI and HindIII restriction sites at the 5’ end and 3’ end, respectively. The resulting plasmid is a pBAD vector harboring a gene encoding TmCHMO fused to the C-terminus of a thermostable variant of phosphite dehydrogenase (PTDH). A histidine tag at the N-terminus of the PTDH is also included in this construct. The same construct containing either the AcCHMO gene or the TfPAMO gene, instead of the TmCHMO gene, was carried out for a previous study[9] and used here to obtain the corresponding fusion proteins. The TmCHMO gene was also subcloned into a pBAD plasmid containing the SUMO (small ubiquitin-related modifier) gene with a N-terminal histidine tag (pBAD-His-Tag-SUMO-TmCHMO).

[7] = substrate: CC(=O)Cc1ccccc1; experiment: purified protein, by the assay type; set-up: steady-state kinetics, NADPH consumption followed by absorbance at 340 nm; conditions: pH 7.0; 25.0 °C
Description: as §1

[8] = substrate: CCC(C)=O; experiment: purified protein, by the assay type; set-up: steady-state kinetics, NADPH consumption followed by absorbance at 340 nm; conditions: pH 7.0; 25.0 °C
Description: as §1

[9] = substrate: O=C1CCCC1; experiment: purified protein, by the assay type; set-up: steady-state kinetics, NADPH consumption followed by absorbance at 340 nm; conditions: pH 7.0; 25.0 °C
Description: as §1

[10] = substrate: CCCCCCC(C)=O; experiment: purified protein, by the assay type; set-up: steady-state kinetics, NADPH consumption followed by absorbance at 340 nm; conditions: pH 7.0; 25.0 °C
Description: as §1

[11] = substrate: CCCCCCCCC(C)=O; experiment: purified protein, by the assay type; set-up: steady-state kinetics, NADPH consumption followed by absorbance at 340 nm; conditions: pH 7.0; 25.0 °C
Description: as §1

[12] = substrate: O=C1CCC1; experiment: steady-state kinetics; format: biochemical, Thermocrispum municipale
[13] = substrate: O=C1CCCCC1; experiment: steady-state kinetics; format: biochemical, Thermocrispum municipale
[14] = substrate: O=C1CC2C=CCC12; experiment: steady-state kinetics; format: biochemical, Thermocrispum municipale

Molecule: AcCHMO (Acinetobacter johnsonii)
- kcat [1]: 4 s⁻¹
- Km [2]: 9 µM
- kcat [2]: 6 s⁻¹
- kcat [3]: 4 s⁻¹

Molecule: CSc1ccccc1 [thioanisole]
- Km [4]: < 60 µM

Molecule: O=C1CC2C=CCC12 (racemic) [bicyclo[3.2.0]hept‐2‐en‐6‐one]
- small-scale conversion [5]: By contrast, TfPAMO produced all four possible lactones

B1: TmCHMO (Thermocrispum municipale DSM 44069) (protein)
chain: MSTTQTPDLDAIVIGAGFGGIYMLHKLRNDLGLSVRVFEKGGGVGGTWYWNKYPGAKSDTEGFVYRYSFDKELLREYDWTTRYLDQPDVLAYLEHVVERYDLARDIQLNTEVTDAIFDEETELWRVTTAGGETLTARFLVTALGLLSRSNIPDIPGRDSFAGRLVHTNAWPEDLDITGKRVGVIGTGSTGTQFIVAAAKMAEQLTVFQRTPQYCVPSGNGPMDPDEVARIKQNFDSIWDQVRSSTVAFGFEESTVEAMSVSESERQRVFQQAWDKGNGFRFMFGTFCDIATNPEANAAAAAFIRSKIAEIVKDPETARKLTPTDLYAKRPLCNEGYYETYNRDNVSLVSLKETPIEEIVPQGVRTSDGVVHELDVLVFATGFDAVDGNYRAMNLRGRDGRHINEHWTEGPTSYLGVTKAGFPNMFMILGPNGPFTNLPPSIEAQVEWISDLIDKATREGLTTVEPTADAEREWTETCAEIANMTLFPKADSWIFGANIPGKRHAVMFYLGGLGNYRRQLADVADGGYRGFQLRGERAQAVA
notes: purified recombinant enzyme (E. coli used as expression host for whole-cell work)
- Km [6]: 5000 µM
- Km [7]: 200 µM
- Km [8]: 500 µM
- Km [9]: 20 µM
- Km [10]: 100 µM
- Km [11]: 50 µM
- kcat [12]: 2 s⁻¹
- kcat [13]: 2 s⁻¹
- kcat [14]: 2 s⁻¹
